Measured values taken from patent US20210386829A1, “COMPOSITIONS AND METHODS FOR MODULATING CGRP SIGNALING TO REGULATE INNATE LYMPHOID CELL INFLAMMATORY RESPONSES” (The Broad Institute, Inc., priority 2018, published 2021).

Test system: lung-resident ILCs
Assay: SMART-Seq2 plate-based scRNA-seq of lung-resident ILCs from PBS-, IL-25- or IL-33-treated mice, differential gene expression by logistic regression (Tables 3, 4)
Format: in vivo, mouse
Excerpt: Mice and in vivo ILC activation. C57B1/6J mice were purchased from the Jackson Laboratory. Nmur1-LacZ reporter mice with a LacZ cassette knocked into the Nmur1 locus were rederived from Nmur1^tm1.1(KOMP)Vlcg sperm obtained from the trans-NIH Knock-Out Mouse Project (KOMP) Repository. NMU-deficient mice (NMU-KO) were rederived from B6.129S2-Nmu<tm1Mko> embryos from the RIKEN BioResource Center. For experiments with Nmur1-LacZ (Nmur1-KO) and NMU-KO mice, littermates that were either homozygous or heterozygous for the wild type allele were used as controls. Mice were housed under specific-pathogen-free conditions. For experiments, mice were matched for sex and age, and most mice were 6-10 weeks old. Where indicated, mice were anesthetized with Isoflurane and treated intranasally with the indicated stimuli (500 ng IL-25, 500 ng IL-33, or 20 μg Neuromedin U) daily for three consecutive days. The total administered volume was 20 μl for all conditions. Mice were randomly assigned to treatment groups after matching for sex and age. […] Mice were treated intranasally with 10 μg HDM on day 0, 7, 8, and 9, prior to sacrifice on day 10. All experiments were conducted in accordance with animal protocols approved by the Harvard Medical Area Standing Committee on Animals or BWH IACUC.
Fluorescence-activated cell sorting of innate lymphoid cells. After dissociation, single cell suspensions were incubated with CD90.2 MicroBeads (Miltenyi Biotec) on ice and enriched for CD90.2^+ cells by magnetic separation using LS columns according to the manufacturer's protocol. CD90.2^+ lung cells were then stained on ice with antibodies for sorting. ILCs were defined as 7AAD^− CD45^+ CD90.2^+ CD127^+ Lineage (CD11b, CD11c, CD19, NK1.1, […], CD4, CD8a, TCRβ, TCRγδ)^− cells and sorted on a BD FACS Aria (BD Biosciences).
For full-length scRNA-Seq, single ILCs were sorted into 96-well plates containing 5 ul TCL Buffer (QIAGEN) with 1% 2-Mercaptoethanol, centrifuged and frozen at −80° C. SMART-Seq2 protocol was carried out as previously described^23 with minor modifications in the reverse transcription step. cDNA was amplified with 22 cycles and fragmented with one-eighth of the standard Illumina NexteraXT reaction volume. Single-cell libraries were pooled and paired-end sequenced (38 bp×2) with a 75 cycle Nextseq 500 high output V2 kit.
Analysis of SMART-Seq2 plate-based scRNA-Seq data. Reads were aligned to mm10 using Kallisto (Bray, N. L., Pimentel, H., Meisted, P. & Pachter, L. Near-optimal probabilistic RNA-seq quantification. Nat Biotechnol 134, 525-527, doi:10.1038/nbt.3519 (2016)) quant, version 0.42.3. The R package tximport (Soneson, C., Love, M. I. & Robinson, M. D. Differential analyses for RNA-seq: transcript-level estimates improve gene-level inferences [version 2; referees: 2 approved]. F1000Research 4, doi:10.12688/f1000research.7563.2 (2016)), version 1.2.0, was used to convert the output to gene counts and traditional TPM values. Because of the variability in read counts per cell across plates, even from the same condition, as well as in the number of genes per cell across conditions, QC was performed for each of eight plates individually in order to remove cells that were outliers with respect to either measure. Out of 752 cells, 606 cells met QC criteria (234 from control, 152 from IL-25 treated mice, and 220 from IL-33 treated mice), and the number of genes per cell in this set ranged from 1,625 to 6,375. Genes that were not expressed with log(TPM)>2.5 in at least two cells were removed from further analysis. Subsequent analysis proceeded analogously to the droplet-based RNA-seq analysis, with parameter settings that reflected both the wider dynamic range of expression and much smaller cell numbers. The minimum ILC signature score required in ILC type assignment was 0.3. Variable genes were identified by running MeanVarPlot with x.low.cutoff=0.1, y.cutoff=1.5, and x.high.cutoff=10, resulting in a set of 519 genes. […]

B1: IL25 (protein, UniProt Q8VHH8 17-169, looked up)
Interleukin-25: VSLRIQEGCSHLPSCCPSKEQEPPEEWLKWSSASVSPPEPLSHTHHAESCRASKDGPLNSRAISPWSYELDRDLNRVPQDLYHARCLCPHCVSLQTGSHMDPLGNSVPLYHNQTVFYRRPCHGEEGTHRRYCLERRLYRVSLACVCVRPRVMA
0610031J06Rik expression coeff: 0.555
1700017B05Rik expression coeff: −1.49
1700113H08Rik expression coeff: −0.86
4632428N05Rik expression coeff: 1.28
AA467197 expression coeff: −0.724
AI593442 expression coeff: −2.55
AI836003 expression coeff: −0.781
AW112010 expression coeff: 0.787
Abtb2 expression coeff: 0.292
Acot7 expression coeff: 0.807
Adrbk1 expression coeff: 0.798
Adsl expression coeff: −1.77
Ahcyl2 expression coeff: −1.01
Amd1 expression coeff: −0.74
Anxa2 expression coeff: 0.693
Ap3d1 expression coeff: 0.719
Arf5 expression coeff: 0.592
Arhgap1 expression coeff: 1.34
Arhgap26 expression coeff: 0.821
Asl expression coeff: 1.17
Asph expression coeff: −1.27
Atp8b4 expression coeff: 1
Atxn7l3b expression coeff: 0.557
Bcl2a1d expression coeff: 0.357
Bcl3 expression coeff: 1.33
Bcl6 expression coeff: 1.29
Bmp2 expression coeff: −0.856
Brix1 expression coeff: −0.00742
C1qbp expression coeff: −0.742
Cap1 expression coeff: 1.28
Cblb expression coeff: 1.08
Ccdc50 expression coeff: 1.05
Ccdc142 expression coeff: −1.86
Ccng1 expression coeff: 0.622
Ccr2 expression coeff: −1.53
Cd247 expression coeff: 1.16
Chdh expression coeff: −0.136
Chordc1 expression coeff: 1.4
Chst11 expression coeff: −0.0352
Cirbp expression coeff: −1.41
Commd10 expression coeff: −0.867
Cox10 expression coeff: 0.786
Cpsf7 expression coeff: 0.986
Crlf2 expression coeff: 0.355
Csf1 expression coeff: −1.01
Cst7 expression coeff: −0.0555
Ctla4 expression coeff: 1.48
Ctsw expression coeff: −0.0379
Cybrd1 expression coeff: −0.158
Dcaf12 expression coeff: 0.717
Ddrgk1 expression coeff: −0.21
Ddx20 expression coeff: −1.24
Ddx58 expression coeff: 0.528
Dennd5a expression coeff: 0.929
Dgka expression coeff: −0.0503
Dhx35 expression coeff: −1.63
Dhx37 expression coeff: −0.288
Dhx58 expression coeff: 2.3
Dkk3 expression coeff: −0.0269
Dock10 expression coeff: −0.792
E030030I06Rik expression coeff: −0.87
Ecm1 expression coeff: −0.0192
Endod1 expression coeff: 0.398
Epsti1 expression coeff: 1.79
Eva1b expression coeff: 0.99
Exosc4 expression coeff: −0.31
Extl3 expression coeff: −0.16
Fam118a expression coeff: −0.764
Fbxl21 expression coeff: 12.2
Ffar2 expression coeff: 1.36
Fhl2 expression coeff: −1.07
Fosb expression coeff: 0.156
Foxo3 expression coeff: 2.06
Fus expression coeff: −0.388
Gal3st3 expression coeff: −1.01
Gba expression coeff: −0.05
Gbp4 expression coeff: 0.318
Gbp6 expression coeff: 0.949
Gbp9 expression coeff: 0.745
Gga1 expression coeff: 0.739
Gigyf1 expression coeff: −0.844
Glrx expression coeff: 0.346
Gm12250 expression coeff: 3.54
Gnai2 expression coeff: 0.501
Gng2 expression coeff: 1.06
Gnl3l expression coeff: −0.617
Gp49a expression coeff: 1.04
Gpr108 expression coeff: 0.205
Grn expression coeff: −0.326
Gskip expression coeff: 0.645
Gucd1 expression coeff: −0.0721
H2-T9 expression coeff: 0.437
H2-T10 expression coeff: 0.799
H2-T22 expression coeff: 0.0651
Herc6 expression coeff: 0.579
Hpcal1 expression coeff: −0.169
Hsph1 expression coeff: 0.237
Idh2 expression coeff: −0.56
Ifi35 expression coeff: 0.307
Ifngr2 expression coeff: −0.761
Ifrd2 expression coeff: −1.53
Igfbp4 expression coeff: −2.9
Igsf5 expression coeff: −0.93
Il2rb expression coeff: 0.699
Il5 expression coeff: 1.4
Il13 expression coeff: 1.61
Impact expression coeff: −1.46
Inpp1 expression coeff: 1.79
Inpp4b expression coeff: −0.752
Inpp5b expression coeff: 0.937
Irf4 expression coeff: 1.11
Irf7 expression coeff: 0.423
Isg15 expression coeff: 2.03
Isg20 expression coeff: 1.54
Itgae expression coeff: −0.182
Kit expression coeff: −0.406
Krit1 expression coeff: 0.612
Lamp2 expression coeff: 0.692
Lancl1 expression coeff: −1.11
Lat2 expression coeff: −0.0259
Lcmt2 expression coeff: −2.32
Lgals3bp expression coeff: 0.804
Lgals3 expression coeff: 0.303
Lilrb4 expression coeff: 0.943
Lpcat2 expression coeff: −0.773
Lsm6 expression coeff: −0.616
Lxn expression coeff: 0.065
Ly6a expression coeff: 0.412
Map2k4 expression coeff: 1.89
Marf1 expression coeff: 3.17
